Source: article PMC8121789, “Characterization of an engineered live bacterial therapeutic for the treatment of phenylketonuria in a human gut-on-a-chip” (Nature Communications, 2021)

Substrate: N[C@@H](Cc1ccccc1)C(=O)O
Experiment: Phe consumption by live engineered cells, Michaelis-Menten model
Assay type: cell-based, Photorhabdus laumondii
Settings: apparent whole-cell pathway value (PheP uptake plus PAL), not purified enzyme; in vitro Phe consumption assays

B1: phenylalanine ammonia lyase (PAL) (Photorhabdus laumondii subsp. laumondii TTO1) (protein)
chain: MKAKDVQPTIIINKNGLISLEDIYDIAIKQKKVEISTEITELLTHGREKLEEKLNSGEVIYGINTGFGGNANLVVPFEKIAEHQQNLLTFLSAGTGDYMSKPCIKASQFTMLLSVCKGWSATRPIVAQAIVDHINHDIVPLVPRYGSVGASGDLIPLSYIARALCGIGKVYYMGAEIDAAEAIKRAGLTPLSLKAKEGLALINGTRVMSGISAITVIKLEKLFKASISAIALAVEALLASHEHYDARIQQVKNHPGQNAVASALRNLLAGSTQVNLLSGVKEQANKACRHQEITQLNDTLQEVYSIRCAPQVLGIVPESLATARKILEREVISANDNPLIDPENGDVLHGGNFMGQYVARTMDALKLDIALIANHLHAIVALMMDNRFSRGLPNSLSPTPGMYQGFKGVQLSQTALVAAIRHDCAASGIHTLATEQYNQDIVSLGLHAAQDVLEMEQKLRNIVSMTILVVCQAIHLRGNISEIAPETAKFYHAVREISSPLITDRALDEDIIRIADAIINDQLPLPEIMLEE
notes: PAL genes inserted in chromosome of host E. coli Nissle 1917 strain SYN5183 (FNR and Ptac promoters), co-expressed with transporter PheP; live cells
  Km: 0.2 mM
